The values that follow come from PMC12826058.

Common to all, as to test: SPR
A general note: In SPR one partner is held on a chip, and binding of the other changes the refractive index at the surface.

Data set [1] has as its system His6-AdiY (Escherichia coli K-12 MG1655). As to conditions: pH 6.0, phosphate; 1:4 DNA:protein; SPR (Biacore T200, SA chip), 25 C, 50 mM sodium phosphate pH 6.0-7.0 (50 mM citrate at pH 5.5 and 5.8), 250 mM NaCl, 2% glycerol, 2 mM DTT, 0.005% P20; 1:1 ….
Data set [2] addresses T1, His6-AdiY-H34A/H60A H34A;H60A (Escherichia coli K-12 MG1655) (UniProt P33234).
T1 sequence: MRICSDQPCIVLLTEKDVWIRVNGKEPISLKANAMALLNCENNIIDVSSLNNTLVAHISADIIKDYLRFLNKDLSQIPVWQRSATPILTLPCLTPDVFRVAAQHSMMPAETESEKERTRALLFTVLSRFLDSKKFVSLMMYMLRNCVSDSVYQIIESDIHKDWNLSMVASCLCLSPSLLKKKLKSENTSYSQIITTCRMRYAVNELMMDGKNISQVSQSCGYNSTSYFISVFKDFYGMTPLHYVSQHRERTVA
As to conditions: SPR (Biacore T200, SA chip), 25 C, 50 mM sodium phosphate pH 6.0-7.0 (50 mM citrate at pH 5.5 and 5.8), 250 mM NaCl, 2% glycerol, 2 mM DTT, 0.005% P20; 1:1 ….

For data set [3], the target named is T2, His6-AdiY (Escherichia coli K-12 MG1655) (UniProt P33234).
T2 sequence: T1 sequence with A34H, A60H
The conditions noted are these: SPR (Biacore T200, SA chip), 25 C, 50 mM sodium phosphate pH 6.0-7.0 (50 mM citrate at pH 5.5 and 5.8), 250 mM NaCl, 2% glycerol, 2 mM DTT, 0.005% P20; 1:1 ….

Residue numbers refer to the chain shown, from its start.

For PadiA (adiA promoter), in data set [1], the Kd (usually the constant that tells how readily two partners part at equilibrium) was determined as 0.17 µM.
For PadiC (adiC promoter), the Kd in data set [1] stood at 0.12 µM.
For “TCTACGGTATGACGCCGCTGCATTATGTTAGTCAGCACAGAGAACGCACTGTCGCCTGATTTTTAACCTTAACGAAGAGCTATATTAATAACGGCATCAGCGATAACCCGGTCGATAATAATTCAACTATCGAATGCAGGCGTATGATATGACGTAATTTATTGTCACGAAGCTCGCCTTCGCAGGAGTTTAATT (double strand) [PadiC (adiC promoter)]”, the binding entry in data set [2] is “no binding”; in data set [3], “binds”. Besides, the Kd in data set [3] came to 0.12 µM.
On to “TGCTTACCCGGTTATGAAGGAATCTTCGTTGCGGGCAAGTATCTTCCGGCCTTTTCGGGCTGTAAAGCGCGTGAAAAACAAACATTTTTGAAATATTTAGTTTTATAAACAATACGTTATGTGATTATTTTAAATTATTTTCACTGCTTATTATCGACGGCTAAACTATTTTTTTGGCTGATACTGATATCGTCT (double strand) [PadiA (adiA promoter)]”, for which the binding entry in data set [2] is listed as “no binding”. Also, in data set [3], the Kd turned out to be 0.17 µM and the binding entry is “binds”.
